In publication PMC6405930, “Conservation of the Amyloid Interactome Across Diverse Fibrillar Structures” (Scientific Reports, 2019):

B1: Calsyntenin-1: CSF protein bound to fibrils (protein, UniProt O94985 29-981, looked up)
Calsyntenin-1: ARVNKHKPWLEPTYHGIVTENDNTVLLDPPLIALDKDAPLRFAESFEVTVTKEGEICGFKIHGQNVPFDAVVVDKSTGEGVIRSKEKLDCELQKDYSFTIQAYDCGKGPDGTNVKKSHKATVHIQVNDVNEYAPVFKEKSYKATVIEGKQYDSILRVEAVDADCSPQFSQICSYEIITPDVPFTVDKDGYIKNTEKLNYGKEHQYKLTVTAYDCGKKRATEDVLVKISIKPTCTPGWQGWNNRIEYEPGTGALAVFPNIHLETCDEPVASVQATVELETSHIGKGCDRDTYSEKSLHRLCGAAAGTAELLPSPSGSLNWTMGLPTDNGHDSDQVFEFNGTQAVRIPDGVVSVSPKEPFTISVWMRHGPFGRKKETILCSSDKTDMNRHHYSLYVHGCRLIFLFRQDPSEEKKYRPAEFHWKLNQVCDEEWHHYVLNVEFPSVTLYVDGTSHEPFSVTEDYPLHPSKIETQLVVGACWQEFSGVENDNETEPVTVASAGGDLHMTQFFRGNLAGLTLRSGKLADKKVIDCLYTCKEGLDLQVLEDSGRGVQIQAHPSQLVLTLEGEDLGELDKAMQHISYLNSRQFPTPGIRRLKITSTIKCFNEATCISVPPVDGYVMVLQPEEPKISLSGVHHFARAASEFESSEGVFLFPELRIISTITREVEPEGDGAEDPTVQESLVSEEIVHDLDTCEVTVEGEELNHEQESLEVDMARLQQKGIEVSSSELGMTFTGVDTMASYEEVLHLLRYRNWHARSLLDRKFKLICSELNGRYISNEFKVEVNVIHTANPMEHANHMAAQPQFVHPEHRSFVDLSGHNLANPHPFAVVPSTATVVIVVCVSFLVFMIILGVFRIRAAHRRTMRDQDTGKENEMDWDDSALTITVNPMETYEDQHSSEEEEEEEEEEESEDGEEEDDITSAESESSEEEEGEQGDPQNATRQQQLEWDDSTLSY
B2: Cystatin-C: CSF protein bound to fibrils (protein, UniProt P01034 27-146, looked up)
Cystatin-C: SSPGKPPRLVGGPMDASVEEEGVRRALDFAVGEYNKASNDMYHSRALQVVRARKQIVAGVNYFLDVELGRTTCTKTQPNLDNCPFHDQPHLKRKAFCSFQIYAVPWQGTMTLSKSTCQDA
B3: Amyloid-like protein 1: CSF protein bound to fibrils (protein, UniProt P51693 39-650, looked up)
Amyloid beta precursor like …: SLAGGSPGAAEAPGSAQVAGLCGRLTLHRDLRTGRWEPDPQRSRRCLRDPQRVLEYCRQMYPELQIARVEQATQAIPMERWCGGSRSGSCAHPHHQVVPFRCLPGEFVSEALLVPEGCRFLHQERMDQCESSTRRHQEAQEACSSQGLILHGSGMLLPCGSDRFRGVEYVCCPPPGTPDPSGTAVGDPSTRSWPPGSRVEGAEDEEEEESFPQPVDDYFVEPPQAEEEEETVPPPSSHTLAVVGKVTPTPRPTDGVDIYFGMPGEISEHEGFLRAKMDLEERRMRQINEVMREWAMADNQSKNLPKADRQALNEHFQSILQTLEEQVSGERQRLVETHATRVIALINDQRRAALEGFLAALQADPPQAERVLLALRRYLRAEQKEQRHTLRHYQHVAAVDPEKAQQMRFQVHTHLQVIEERVNQSLGLLDQNPHLAQELRPQIQELLHSEHLGPSELEAPAPGGSSEDKGGLQPPDSKDDTPMTLPKGSTEQDAASPEKEKMNPLEQYERKVNASVPRGFPFHSSEIQRDELAPAGTGVSREAVSGLLIMGAGGGSLIVLSMLLLRRKKPYGAISHGVVEVDPMLTLEEQQLRELQRHGYENPTYRFLEERP
B4: Fibulin-1: CSF protein bound to fibrils (protein, UniProt P23142 30-703, looked up)
Fibulin-1: DVLLEACCADGHRMATHQKDCSLPYATESKECRMVQEQCCHSQLEELHCATGISLANEQDRCATPHGDNASLEATFVKRCCHCCLLGRAAQAQGQSCEYSLMVGYQCGQVFQACCVKSQETGDLDVGGLQETDKIIEVEEEQEDPYLNDRCRGGGPCKQQCRDTGDEVVCSCFVGYQLLSDGVSCEDVNECITGSHSCRLGESCINTVGSFRCQRDSSCGTGYELTEDNSCKDIDECESGIHNCLPDFICQNTLGSFRCRPKLQCKSGFIQDALGNCIDINECLSISAPCPIGHTCINTEGSYTCQKNVPNCGRGYHLNEEGTRCVDVDECAPPAEPCGKGHRCVNSPGSFRCECKTGYYFDGISRMCVDVNECQRYPGRLCGHKCENTLGSYLCSCSVGFRLSVDGRSCEDINECSSSPCSQECANVYGSYQCYCRRGYQLSDVDGVTCEDIDECALPTGGHICSYRCINIPGSFQCSCPSSGYRLAPNGRNCQDIDECVTGIHNCSINETCFNIQGGFRCLAFECPENYRRSAATLQQEKTDTVRCIKSCRPNDVTCVFDPVHTISHTVISLPTFREFTRPEEIIFLRAITPPHPASQANIIFDITEGNLRDSFDIIKRYMDGMTVGVVRQVRPIVGPFHAVLKLEMNYVVGGVVSHRNVVNVHIFVSEYWF
B5: α2-HS-glycoprotein: CSF protein bound to fibrils (protein, UniProt P02765 19-300; P02765 341-367, looked up)
Alpha-2-HS-glycoprotein chain … 1: APHGPGLIYRQPNCDDPETEEAALVAIDYINQNLPWGYKHTLNQIDEVKVWPQQPSGELFEIEIDTLETTCHVLDPTPVARCSVRQLKEHAVEGDCDFQLLKLDGKFSVVYAKCDSSPDSAEDVRKVCQDCPLLAPLNDTRVVHAAKAALAAFNAQNNGSNFQLEEISRAQLVPLPPSTYVEFTVSGTDCVAKEATEAAKCNLLAEKQYGFCKATLSEKLGGAEVAVTCMVFQTQPVSSQPQPEGANEAVPTPVVDPDAPPSPPLGAPGLPPAGSPPDSHVL
Alpha-2-HS-glycoprotein chain … 2: TVVQPSVGAAAGPVVPPCPGRIRHFKV

What was measured:
Assay in all cases: Fibril incubation with CSF, quantitative MS/MS of bound proteins
[1] = system: T1, Ab2 fibrils; format: binding, human; details: 4:1 w/w CSF protein:fibril
T1 construct: Two structurally distinct fibrils of the Aβ(1–40) peptide associated with AD
Method: (§1) Plasma and CSF solutions were centrifuged (40,000 g, 20 min) to remove any aggregates. The protein concentration was determined using 280 nm absorbance assuming 1 Abs = 1 mg/mL. […] Control samples (without fibril material) were prepared similarly. All samples were incubated at room temperature for one hour under gentle agitation. Fibrils and fibril-bound proteins were pelleted by centrifugation at 17,000 g for 30 minutes. The supernatant (175 μL) was removed and the aggregate was re-suspended in 175 μL PBS and pelleted again before further preparation for gel analysis and spin-filter assisted digest for quantitative MS/MS.
(§2) The fibril-protein pellets were transferred to spin-filters (0.22 μm), washed twice in PBS (100 μL) and once in 1 M NaCl (100 μL). The fibrils and fibril-bound proteins were dissolved by one-hour incubation in 100 μL 6 M guanidinium chloride followed by elution from the spin-filter. The eluted proteins were loaded onto a 3 kDa MWCO filter unit for filter-assisted unfolding, reduction, alkylation, and trypsin digestion. In brief, samples were washed twice in 8 M urea, once in 8 M urea with 50 mM DTT, once in 8 M urea with 50 mM iodoaceteamide, and twice in 8 M Urea. The filter units were dried by centrifugation (14,000 g in 30 minutes) after every addition. Trypsin digestion was carried out with 0.25 μg sequencing grade trypsin from Sigma Aldrich in 50 mM ammonium bicarbonate overnight at 37 °C. The tryptic peptides were collected by centrifugation, acidified with TFA (0.1%) and micro-purified using POROS R2 column material (Applied Biosystems) packed in P200 pipette tips (Sarstedt).
(§3) LC-MS/MS analyses were performed on an EASY-nLC II system (Thermo Fisher Scientific) connected to a TripleTOF 5600+ mass spectrometer (Sciex) equipped with a NanoSpray III source (Sciex) and operated under Analyst TF 1.6.0 control.
(§4) The micro-purified tryptic peptides were dissolved in 0.1% formic acid, injected and trapped on an in-house packed trap column (2 cm × 100 μm I.D) with RP ReproSil-Pur C18-AQ 3 μm resin (Dr. Maisch GmbH). Peptides were eluted from the trap column and separated on a 15 cm analytical column (75 μm i.d.) packed in-house in a pulled emitter with RP ReproSil-Pur C18-AQ 3 μm resin (Dr. Maisch GmbH). Elution from the analytical column was performed with a linear gradient from 5% to 35% phase B (90% acetonitrile with 0.1% formic acid) over 20 min for protein identification and 50 min for quantitative analysis, respectively.
(§5) All samples were analysed three times, yielding nine MS/MS experiments for each fibril for both plasma and CSF. For the area-based extracted ion chromatogram (XIC) quantification, the acquisition method was set up as an information-dependent acquisition (IDA) experiment collecting up to 25 MS/MS spectra in each 1.6 sec cycle using an exclusion window of 6 sec.
(§6) XIC quantification was based on the average ion intensity of the three most abundant peptides for each protein. Only proteins quantified in at least four out of nine MS/MS experiments per fibril were included in the quantification. The total ion scores were visualized after grouping the proteins according to function (Figure S11).
(§7) For each MS/MS experiment, the ion intensities of the individual proteins were normalized to the total ion intensity of that MS/MS experiment to achieve a relative protein composition. The contribution of each protein was averaged over all nine MS/MS experiments (Tables 1 and 2).

[2] = target: T2, glucagon fibrils (Homo sapiens, UniProt P01275); format: binding; details: 4:1 w/w CSF protein:fibril
T2 construct: fibrils of the peptide hormone glucagon
T2 sequence (P01275 53-81 limits assumed): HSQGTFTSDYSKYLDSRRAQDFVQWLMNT
Method: as §1, §2, §3, §4, §5, §6, §7

[3] = target: T3, C-36 fibrils (Homo sapiens, UniProt P01009); format: binding; design: key to Identification status of CSF protein bound: C-36: *: Identified, but not quantified; —: Not identified in any of the samples; details: for Relative composition of CSF proteins bound: C-36: 4:1 w/w CSF protein:fibril
T3 construct: the 36 residue C-terminal fragment of α1-antitrypsin (C-36)
T3 sequence (P01009 383-418 limits assumed): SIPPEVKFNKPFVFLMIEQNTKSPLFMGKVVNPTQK
Method: as §1, §2, §3, §4, §5, §6, §7

[4] = target: αSN fibrils (Homo sapiens, UniProt P37840); format: binding; design: key to Identification status of CSF protein bound: αSN: *: Identified, but not quantified; —: Not identified in any of the samples; details: for Identification status of CSF protein bound: αSN: symbol cells
Method: as §1, §2, §3, §4, §5, §6, §7

[5] = system: T4, FAS4-AD aggregates; format: binding, human; design: key to Identification status of CSF protein bound: FAS4-AD: *: Identified, but not quantified; —: Not identified in any of the samples; details: symbol cells
T4 construct: aggregates of a mutated version of the FAS1-4 domain of TGFBIp
Method: as §1, §2, §3, §4, §5, §6, §7

[6] = system: T5, Ab1 fibrils; format: binding, human; details: 4:1 w/w CSF protein:fibril
T5 construct: Synthetic amyloid β peptide 1–40 was purchased from Caslo Aps (Lyngby, Denmark); purchased Caslo Aps (Lyngby, Denmark); host or cells: synthetic peptide
Method: as §1, §2, §3, §4, §5, §6, §7

Molecule | Relative composition of CSF proteins bound: Ab2 [1] | Relative composition of CSF proteins bound: Glucagon [2] | Relative composition of CSF proteins bound: C-36 [3] | Relative composition of CSF proteins bound: αSN ([4]; 4:1 w/w CSF protein:fibril) | Identification status of CSF protein bound: FAS4-AD [5] | Relative composition of CSF proteins bound: Ab1 [6] | Identification status of CSF protein bound: C-36 ([3]; symbol cells) | Identification status of CSF protein bound: αSN [4]
B1 | 1.8 ± 0.8 % of total protein | 0.4 ± 0.2 % of total protein | 1.2 ± 0.1 % of total protein | 3.1 ± 0.4 % of total protein | — |  |  | 
B2 | 6.0 ± 0.6 % of total protein | 0.9 ± 0.0 % of total protein |  |  | * | 3.9 ± 0.4 % of total protein | * | *
B3 | 3.4 ± 0.7 % of total protein | 0.6 ± 0.0 % of total protein | 2.0 ± 0.1 % of total protein |  | — | 2.8 ± 0.2 % of total protein |  | *
B4 | 1.3 ± 0.1 % of total protein | 0.3 ± 0.0 % of total protein | 1.2 ± 0.2 % of total protein |  | — | 1.4 ± 0.1 % of total protein |  | —
B5 | 1.9 ± 0.6 % of total protein | 0.7 ± 0.2 % of total protein | 3.6 ± 0.7 % of total protein |  | — | 1.1 ± 0.0 % of total protein |  | *
